# In the DeepSol protein solubility set:
# Experiment: soluble on expression in E. coli; label from the status in PepcDB or PDB records
row,Sequence,soluble on expression in E. coli
1,MGSDKIHHHHHHMAGKQLLLMDGIHKRFGPLIVSAGVTLDVEENEIHALLGENGAGKTVLMSILCGVLSPNEGQIVFKGRPLKLGSPREAIKHRIGMVHQHFMLVPNLTVAENYVLGQGSPFSMIRDMRAVHARILELSDRYGLDVAPDALVSSLSVGERQRVEILKVLYHGIELLILDEPTAVLTPQETDRLLHLLRQLVADGKTVIFISHKLDEVMRVSDRVSVMRDAKVVRTVKTSETTARELARMMVGRDVLMYLPRAPLEPGRVVLSVEHLSCDGEAGLPALRDVSFEVRANEIVGIAGVSGNGQSELALALTGLLPVASGSVTLDGTQLAGLSSYEINQLPMAHIPEDRHRMGIVLPLPLTENVILQRFDKPPFSSRGLLDLNEITRQTRDLMRRFKVKASGPGDRIRNLSGGNQQKLVVGRELDRRFDFLLINQLTRGIDIGATELVMHKILEQRSAGKAILLISTELEELFTLSDRILVMYEGRLVGEIPPDRSRLEEIGLLMAGKSPLSAA,not soluble
2,MGRINELRMISRVAQMYFSEHKRQAEIAQHLNLSQATVSRMLKRAEAEGIVRTSIIPPPGTYSDLEAQLRERFDLPEAIVVDCSEDRDGAIMARIGEAAAHFLEVTLSQNEIIGVSSWSQTIFKMVENIHPLKGAKARYIVQTLGGMGDPSVQTHATQITTRLARLTEAEPKLLPVPGVATSREAKLLMLADPFVRETIDLFGSITLAIVGVGAVEPSELLARSGNIFSTKELADLAQAGAVGDISLRFFDKDGKPVKTPLDDRVIGLPLENLSNVDRVIALAGGLKKTEAIAGALRTGVIDVLVTDKFTAERLVGQET,soluble
3,SLADYYQVQLNMMPPVNLTVLDHCVENYSWNQMMEQAKLYADMFGFHKYWSVDEDDISTGFTALRSIVMSSSNGQIKMPINEPVKSIMKGQIEEFNDFNGGPGIQHIAFRTNNIIETVMALMQRGVEFNHTSENYYNNLKQRLNNDGIKLYEDFDTLRSLNILIDYDPSEG,not soluble
4,MSDSSPTNLPSRAFATQKLAKLIDRWTGNANQYDTPISGLRFSRWTTPTPPTSYTHNPSICLIAQGRKRVLLGEESFIYDANHFLISSVDLPIIANIIEASEEQPYLGLIMELDLTEISQLIVDSELAFTQSKEAQKGIAVGELSESLLDAFVRLAELLDEGQNIKILAPIIKREIFYRLLMSEQGTRLHQIATAGSHSHQIAKAIDWLKNNFVKPLSVGDLASYTGMSKSSFYTHFRSMTSMTPLQFQKKLRLSEARRLMLTENLDAMAATFKVGYESPSQFSREYSRLFGAPPSKDIKSLRENLG,not soluble
5,MLRLQMTDGHISCTAVEFSYMSKISLNTPPGTKVKLSGIVDIKNGFLLLNDSNTTVLGGEVEHLIEKWELQRSLSKHNRSNIGTEGGPPPFVPFGQCVSRVQVDSRELDRRKTLQVTMPVKPTNDNDEFEKQRTAAIAEVAKSKETKTFGGGGGGARSNLNMNAAGNRNREVLQKEKSTKSEGKHEGVYRELVDEKALKHITEMGFSKEASRQALMDNGNNLEAALNVLLTSNKQKPVMGPPLRGRGKGRGRIRSEDEEDLGNARPSAPSTLFDFLESKMGTLNVEEPKSQPQQLHQGQYRSSNTEQNGVKDNNHLRHPPRNDTRQPRNEKPPRFQRDSQNSKSVLEGSGLPRNRGSERPSTSSVSEVWAEDRIKCDRPYSRYDRTKDTSYPLGSQHSDGAFKKRDNSMQSRSGKGPSFAEAKENPLPQGSVDYNNQKRGKRESQTSIPDYFYDRKSQTINNEAFSGIKIEKHFNVNTDYQNPVRSNSFIGVPNGEVEMPLKGRRIGHIKPAGPVTAVPCDDKIFYNSGPKRRSGPIKPEKILESSIPMEYAKMWKPGDECFALYWEDNKFYRAEVEALHSSGMTAVVKFIDYGNYEEVLLSNIKPIQTEAWEEEGTYDQTLEFRRGGDGQPRRSTRPTQQFYQPPRARN,not soluble
6,MGSDKIHHHHHHMNKYIMLLMVSLLSACSSTPRKPIPDDPFYAPVYPDAPATQTAATGSIFLDSQASSLYSDIRAHKIGDIITVVLMESTQAKKSATNDIKKGSDMSMDPLFAGGGNVTIKGVPLDLKYKDAYNTKRESDADQSNSLAGSISANVMQVLSNGNLVIRGEKWISINNGDEFIRVTGIVRSQDIKPDNTIESVRVANARIQYSGTGTFADAQKVGWLGQFFLGEWWPF,not soluble
7,MRSVKVYEETWPLHTPFVIARGSRSEAHVVVVELEEEDVKGIGECTPYPRYGESDASVMAQIMSIVPQLENGLTREALQKLLPAGAARNAVDSALWDLQARQRQQSLAGLLGVTLAPVFTTAQTVVIGTPEQMAASAAALWEKGATLLKIKLDARLISERMVAIRSAVPEATLIVDANESWRPEGLAARCQLLADLNVAMLEQPLPAQDDAALENFIHPLPICADESCHTRSSLKALTGRYDMINIKLDKTGGLTEALALATEAREQGFGLMLGCMLCTSRAISAALPLMPQVSFADLDGPTWLAVDVEPALRFTTGQLHL,not soluble
8,MADANATICYLNGLSLHTINEVEKILLALPKKGDRCEVQVTKPLNGTIGRSTGDVIASKSMQIHDEPRPLSLSPPLQKSEKSSKSKKLSEYSCMSSTKEQMETVEIRNGSNASAAKKLQCKVLTDQVRVSPIVSCNGVILELDVEVTIPDREEKKKLKLEIECPDFVPARIKIGNKWKKIV,not soluble
9,RQPSSLPEGLPAPLEKRVKELAQAARAAEGESRQKFFTQDINGILLDIEAQTRELSSQVRSGVYAYLASFLPCSKDALLKRARKLHLYEQGGRLKEPLQKLKEAIGRAMPEQMAKYQDECQAHTQAKVAKMLEEEKDKEQRDRICSDEEEDEEKGGRRIMGPRKKFQWNDEIRELLCQVVKIKLESQDLERNNKAQAWEDCVKGFLDAEVKPLWPKGWMQARTLFKESRRGHGHLTSILAKKKVMAPSKIKVKESSTKPDKKVSVPSGQIGGPIALPSDHQTGGLSIGASSRELPSQASGGLANPPPVNLEDSLDEDLIRNPASSVEAVSKELAALNSRAAGNS,not soluble
10,MARSQLSAAGEQHVIQLNQQGGKNLFCFPPISGFGIYFKDLALQLNHKAAVYGFHFIEEDSRIEQYVSRITEIQPEGPYVLLGYSAGGNLAFEVVQAMEQKGLEVSDFIIVDAYKKDQSITADTENDDSAAYLPEAVRETVMQKKRCYQEYWAQLINEGRIKSNIHFIEAGIQTETSGAMVLQKWQDAAEEGYAEYTGYGAHKDMLEGEFAEKNANIILNILDKINSDQKVLPNKHGSHHHHHH,soluble
11,MNNIWWQTKGQGNVHLVLLHGWGLNAEVWRCIDEELSSHFTLHLVDLPGFGRSRGFGALSLADMAEAVLQQAPDKAIWLGWSLGGLVASQIALTHPERVQALVTVASSPCFSARDEWPGIKPDVLAGFQQQLSDDFQRTVERFLALQTMGTETARQDARALKKTVLALPMPEVDVLNGGLEILKTVDLRQPLQNVSMPFLRLYGYLDGLVPRKVVPMLDKLWPHSESYIFAKAAHAPFISHPAEFCHLLVALKQRV,soluble
12,MNDALLRALSTVNDPELHRDLVSLGMIERAELSGDVAQVKVNLTTPACPLKGQIELDVRSALLQVPGVRDVQIEFGAMVRAATQPALPGVKHVVLVGSGKGGVGKSSVAVNLAASLARDGARVGLLDADVYGPSVAHMLGQGQARVTANEDRKMRPIEAHGVRFISMANLSPAGQALVWRGPMLHSAIQQFLKDSAWGELDYLIVDLPPGTGDVQLSLTQTVQVTGAVIVTTPQDVALIDAARAIDMFRKASVPVLGVVENMSYFVAPDTGLTYDIFGRGGSRKLGEQYPLLGEIPLDVEVRKDADAGAPAILAHPESVAAQALRAVARTLAGQISVRTLSELPEQLPVLLEHHHHHH,soluble
13,MSLKITSIETIPIKVPIKPEFAIRSGRGGSHVVSPFLLVKVHTDAGITGLGEVSCTPRWSGEDQVSAAHFIKTYLAPLLEGEDPRQIESLTAKFRLGVAGNFFTKSGIEMALWDIAGKAAGKPVYELLGGTVREFIPTKWSVSGQEPDKAADIARWAVAQGFKAMKVKVGIEPDKDVARVAAVRAAIGSQIKLGVDANGGWSREVAASTIERLYASSIYFAEQPIPPEDLLYLPELRKQLKVPIIADESIYSLQDAMTLAHLQAADVFSIYVGKAGGIGPARKIAQFAESVGLKCTVGSNLELGIGSAAMIHLAIATHAIDAESYPCDIIGPMFYEDDMLVEPLPIVAGKAQPNSKPGLGVELNEKTVEKYRVCEGHHHHHH,soluble
